Measurements: US20230399393A1, “METHODS TO EXTEND HEALTH-SPAN AND TREAT AGE-RELATED DISEASES” (National University of Singapore, priority 2020, published 2023)

What was measured:
C57Bl/6J mice [1] = test: Core body temperature of aged mice; format: in vivo, mouse; conditions: mice aged 110 weeks; 40 mg/kg IP every 3 weeks from age 55 weeks; vs isotype control IgG
Procedure: (§1) From age 55 weeks (human equivalent of ˜45 years old (i.e. middle age)) to age 110 weeks (human equivalent of ˜75 years old), mice were administered with 40 mg/kg of either X203 or isotype-matched control IgG via intra-peritoneal injection every 3 weeks.
At age 110 weeks, frailty was assessed using the Mouse Frailty Index described in Rizzo et al. Curr Protoc Mouse Biol. (2018) 8(2):e45, which is hereby incorporated by reference in its entirety. In this protocol, mice are individually observed and evaluated for the absence or presence and severity of 27 different characteristics each scored as 0, 0.5, or 1 based on level of severity. A frailty index score is calculated as the cumulative score of all measures. As a separate measurement of frailty, core body temperature was recorded, as core body temperature is known to decrease with increasing frailty in mice (Reynolds et al., Mechanisms of Ageing and Development (1985) 30(2):143-52). Data were analysed by 2-way ANOVA.

C57Bl/6J mice [2] = test: Gastrocnemius and soleus muscle weights; format: in vivo, mouse; conditions: age 110 weeks; vs IgG control
Procedure: as §1
Mice also underwent body-composition assessment via echo MRI both at baseline (age 55 weeks) and at 108-109 weeks. This enabled calculation of the change in body fat mass and lean (muscle) mass in the X203 and IgG control treatment groups. Gastrocnemius and soleus muscles were also harvested from the mice at age 110 weeks and their weights were recorded. Data were analysed by 2-way ANOVA.

C57Bl/6J mice [3] = test: Analysis of organ fibrosis (hydroxyproline assay, Masson's trichrome); format: in vivo, mouse; conditions: at 110 weeks; heart, lung, kidney, skeletal muscle; vs IgG control antibody
Procedure: (§2) C57Bl/6J mice are randomised to receive either X203 or IgG control antibody at a dose of 40m/kg via IP injection every 3 weeks from age 55 weeks to age 110 weeks.
At 110 weeks, global tissue collagen content is evaluated in the heart, lung, kidney and skeletal muscle tissues by hydroxyproline assay. Tissue sections from these tissues are also subjected to Masson's trichrome staining and analysed by light microscopy (blinded to treatment group).

C57Bl/6J mice [4] = test: Analysis of markers of cellular senescence in tissues; format: in vivo, mouse; conditions: at 110 weeks; p16INK4a, p21CIP1, p53, SA-ß-gal; vs IgG control antibody
From the text: as §2
At 110 weeks, tissues are harvested from the mice cells of the relevant tissues and analysed for gene and/or protein expression of p16^INK4a, p21^CIP1 and p53, and for SA-ß-gal activity.

C57Bl/6J mice [5] = test: Renal function: blood urea nitrogen (BUN) and creatinine; format: in vivo, mouse
Procedure: C57Bl/6J mice are randomised to receive either X203 or IgG control antibody at a dose of 40 mg/kg via IP injection every 3 weeks from age 55 weeks to age 110 weeks, and renal function was evaluated by analysis of serum levels of blood urea nitrogen (BUN) and creatinine using the Urea Assay Kit (ab83362, Abcam) and Creatinine Assay Kit (ab65340, Abcam) in accordance with the manufacturer's instructions.
Levels of BUN and serum creatinine was also analysed in 12 week-old male and female C57Bl/6J mice, in order to determine baseline levels. Data were analysed by 2-way ANOVA.

[6] = tested on: Primary human hepatocytes; test: Hepatocytes stimulated with IL-11, BSA or palmitate with X203, X209 or IgG, western blot; format: cell-based; conditions: 24 hours; antibody 2 μg/ml; IL11 10 ng/ml or palmitate 0.5 mM
Procedure: FIG. 20. Western blot image showing the levels of p-ERK, ERK, p-P90RSK, P90RSK, p-LKB1, LKB1, p-AMPK, AMPK, p-Acetyl-CoA Carboxylase (p-ACC), Acetyl-CoA Carboxylase (ACC), p-mTOR, mTOR, p-p70S6K, p70S6K, p-S6RP, S6RP in primary human hepatocytes that are unstimulated (BL) or stimulated for 24 hours with either IL11, 0.5% BSA, or palmitate (saturated fatty acid) in the presence of X203, X209, or IgG (11E10) isotype control. IL11 (10 ng/ml), IgG/X203/X209 (2 μg/ml), palmitate (0.5 mM) conjugated in free BSA (0.5% BSA solution) in the ratio of 6:1.
Primary human hepatocytes (stimulated with IL-11, BSA or palmitate, or unstimulated) were treated with X203 (anti-IL-11 antagonist antibody) and X209 (anti-IL-11Rα antagonist antibody). […] Treatment with X203 or X209 essentially reverses the effect of palmitate stimulation on these markers to the levels observed in the unstimulated control.

C57Bl/6J mice [7] = test: In vivo administration of anti-IL11 (X203) to old mice, summary of multi-morbidity; parameters: species or system mouse; conditions: vs IgG
From the text: Furthermore, the data disclose that: • Administration of MEK1/2 inhibitor U0126 to cells stimulated with IL11 prevents ERK-mediated inactivation of LKB1/AMPK that stops IL11-induced mTORC1/P70S6K activation. • Administration of anti-IL11 (X203) vs IgG control to mice aged 55-110 weeks old results in lesser ERK activation, restored LKB1/AMPK activity and reduced mTORC1 activity and senescence markers (p16/p21). This is seen across tissues. • Mice deleted for IL11RA1 at 110 weeks old mirror the effects seen with X203 administration and have a signaling profile more similar to young mice, across tissues. • Administration of X203 vs IgG to old mice improves multi-morbidity with better serum levels of fats, glucose, lesser tissue fibrosis, better kidney function, reduced tissue inflammation, reduced obesity and lesser frailty. • Administration of X203 vs IgG to old mice improves markers of inflammation (CCL2, CCL5, TNFa, IL1b, IL11 and IL6)—an altered intercellular communication Hallmark of ageing—across tissues, including liver, kidney and skeletal muscle.
Male and female C57Bl/6J mice aged 46 weeks were purchased from the Jackson Laboratory. Mice were randomised on a 1:1 basis to receive either 40 mg/kg of X203 or an isotype control IgG antibody (11E10), every 3 weeks (IP), starting from 55 weeks of age. Mice were sacrificed at 110 weeks of age for blood and tissues collection. […]

B1: X203: mouse anti-mouse IL-11 IgG antagonist antibody; VH SEQ ID NO:22, VL SEQ ID NO:23 (antibody, V domains shown)
VH: EVQLQQSGPELVKPGASVKIPCKASGYTFTDYNMDWVKQSHGKSLEWIGDINPHNGGPIYNQKFTGKATLTVDKSSSTAYMELRSLTSEDTAVYYCARGELGHWYFDVWGTGTTVTVSS
VL: DIVLTQSPASLAVSLGQRATISCRASKSVSTSGYSYIHWYQQKPGQPPKLLIYLASNLDSGVPARFSGSGSGTDFTLNIHPVEEEDAATYYCQHSRDLPPTFGGGTKLEIK
- body temperature (C57Bl/6J mice [1]): significantly higher
- weight of gastrocnemius muscle as a proportion of body weight (C57Bl/6J mice [2]): greater
- weight of soleus muscle as a proportion of body weight (C57Bl/6J mice [2]): greater
- fibrosis in the tissues analysed (C57Bl/6J mice [3]): less
- levels of markers of cellular senescence (C57Bl/6J mice [4]): lower
- reduction in creatinine levels relative to IgG control (C57Bl/6J mice [5]; female mice, baseline 12 week old female 0.77 mg/dl): 43%
- reduction in BUN levels relative to IgG control (C57Bl/6J mice [5]; female mice, baseline mean BUN of 12 week old female mice 31.8 mg/dl): 42%
- reduction in creatinine levels relative to IgG control (C57Bl/6J mice [5]; male mice, baseline 12 week old male 0.92 mg/dl): 60%
- reduction in BUN levels relative to IgG control (C57Bl/6J mice [5]; male mice, baseline mean BUN of 12 week old male mice 51.3 mg/dl): 79%
- renal function (C57Bl/6J mice [5]; vs IgG control antibody): improved
- levels of p-AMPK and p-ACC [6]: increase
- levels of phosphorylated markers p-ERK, p-p90RSK, p-LKB1, p-mTOR, p-p70S6K and p-S6RP [6]: reduces
- multi-morbidity (serum levels of fats, glucose, tissue fibrosis, kidney function, tissue inflammation, obesity, frailty) (C57Bl/6J mice [7]): improves
